Measured values reported in paper PMC2756654 (Journal of molecular biology, 2008).

Target: the molecule itself
Assay: unfolding kinetics by CD

B1: Human C6A/C111S SOD (Cu, Zn superoxide dismutase) (enzyme)
chain: not shown
- koff: 0.000381 s⁻¹
